Assay results reported in paper PMC5982138, “Disruption of the GDP-mannose synthesis pathway in Streptomyces coelicolor results in antibiotic hyper-susceptible phenotypes” (Microbiology, 2018).

Substrate: O=P(O)(O)O[C@H]1O[C@H](CO)[C@@H](O)[C@H](O)[C@@H]1O
Test: purified protein
Assay type: biochemical, Streptomyces coelicolor
Settings: GTP as co-substrate; cooperative (Hill fit)

B1: SCO4238 (Streptomyces coelicolor A3(2)) (protein)
chain: MTDPNAASRRPVQAVVLAGGQGSRLRPYTDDRPKPMVEIPGTGTPIIGHQLAWLAEEGVTDVVVSCGHLAEVLQKWLESADLPLSVTTVVETEPLGRGGGLRYAAAHLPHPDRSWYATNGDIWTRFSLRDMADFHAERDAVATLALARPRLPWGAVQTDGFGHITDFIEAPPSTFEINAGVYVFSPEFAAMLPERGDHERTTFPRLAREHRLAGFPIPQGSYWRAIDTAKDLTEAARELAALSGR
  Km: 180 ± 30 µM
